This series has as its target T1, dLwaCas13a (LwaC2c2 R474A/R1046A double mutant); the text does not say whether the double or the quad mutant … (Leptotrichia wadei).
T1 chain: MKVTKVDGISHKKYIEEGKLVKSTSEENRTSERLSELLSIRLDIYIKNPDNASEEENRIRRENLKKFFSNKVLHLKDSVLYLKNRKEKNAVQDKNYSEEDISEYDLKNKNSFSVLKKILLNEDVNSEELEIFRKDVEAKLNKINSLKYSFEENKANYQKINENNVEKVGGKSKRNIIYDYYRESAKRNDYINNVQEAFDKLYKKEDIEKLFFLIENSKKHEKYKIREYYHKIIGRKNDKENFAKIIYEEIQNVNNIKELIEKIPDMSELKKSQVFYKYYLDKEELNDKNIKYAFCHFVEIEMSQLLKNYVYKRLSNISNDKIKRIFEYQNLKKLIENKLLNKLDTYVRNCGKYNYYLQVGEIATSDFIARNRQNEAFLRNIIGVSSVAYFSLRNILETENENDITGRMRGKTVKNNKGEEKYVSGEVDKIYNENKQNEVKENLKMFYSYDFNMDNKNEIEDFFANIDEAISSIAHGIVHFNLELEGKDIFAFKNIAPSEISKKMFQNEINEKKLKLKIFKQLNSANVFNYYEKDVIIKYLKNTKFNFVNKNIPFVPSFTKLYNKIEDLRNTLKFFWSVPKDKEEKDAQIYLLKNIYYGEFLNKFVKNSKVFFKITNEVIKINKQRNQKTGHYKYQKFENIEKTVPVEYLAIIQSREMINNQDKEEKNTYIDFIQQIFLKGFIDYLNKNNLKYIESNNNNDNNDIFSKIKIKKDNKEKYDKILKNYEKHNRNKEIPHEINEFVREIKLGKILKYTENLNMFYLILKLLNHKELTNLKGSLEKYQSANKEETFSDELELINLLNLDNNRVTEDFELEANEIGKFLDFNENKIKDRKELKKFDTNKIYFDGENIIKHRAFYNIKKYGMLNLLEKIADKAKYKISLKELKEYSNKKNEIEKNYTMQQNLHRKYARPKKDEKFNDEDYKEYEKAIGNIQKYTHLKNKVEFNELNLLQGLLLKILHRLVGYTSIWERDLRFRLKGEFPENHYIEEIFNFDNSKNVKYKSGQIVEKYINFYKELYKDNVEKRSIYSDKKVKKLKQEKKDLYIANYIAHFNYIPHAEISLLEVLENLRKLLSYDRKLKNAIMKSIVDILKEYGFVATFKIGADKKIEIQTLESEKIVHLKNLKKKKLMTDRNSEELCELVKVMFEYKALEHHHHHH
Briefly: pulldown; […]; 50 mM Tris pH 8, NaCl, 10 mM MgCl2, 37 C; […]. As to conditions: tags: polyhistidine tag; GenScript.

These results are taken from patent US20240344124, “Quantum Dot-Enrichment of CRISPR-Associated (Cas) Proteins for Environmental RNA Enrichment” (The Government of the United States of America, as …, published 2024).

B1: cr7 crRNA ; shortened lcrV target RNA (237 nt) (ssRNA ; ssRNA)
RNA 1: GGGGAUUUAGACUACCCCAAAAACGAAGGGGACUAAAACAAUAUCUAUAUUUUUAUCUUUGACUAAC
RNA 2: AUUGAGGAUCUAGAAAAAGUUAGGGUGGAACAACUUACUGGUCAUGGUUCUUCAGUUUUAGAAGAAUUGGUUCAGUUAGUCAAAGAUAAAAAUAUAGAUAUUUCCAUUAAAUAUGAUCCCAGAAAAGAUUCGGAGGUUUUUGCCAAUAGAGUAAUUACUGAUGAUAUCGAAUUGCUCAAGAAAAUCCUAGCUUAUUUUCUACCCGAGGAUGCCAUUCUUAAAGGCGGUCAUUAUGAC
On to B1, for which the binding result was “binds”.
